± gives the standard deviation of the averaged measurements.
Tests used:
MCF7 = assay: percentage of EdU-negative (G0-arrested) nuclei per well, 72 h; higher = more G0 arrest; details: reference: sequence is the full UniProt precursor, the tested protein was the secreted form or ectodomain
hTERT-HMEC = assay: as above; details: reference: sequence is the full UniProt precursor, the tested protein was the secreted form or ectodomain
[1] = protein concentration 0.0225 µM
[2] = protein concentration 0.03125 µM
[3] = protein concentration 0.3125 µM
[4] = protein concentration 0.01675 µM
[5] = protein concentration 0.1675 µM
[6] = protein concentration 0.0262857 µM
[7] = protein concentration 0.262857 µM
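Note: secreted proteins added to cultured cells, EdU pulse at the end, nuclei found by Hoechst imaging, EdU status from nuclear versus surrounding ring intensity ratio, PBS as neutral control.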

Sequence | percentage of EdU-negative (MCF7; [1]) [%] | percentage of EdU-negative (MCF7; [2]) [%] | percentage of EdU-negative (MCF7; protein concentration 0.225 µM) [%] | percentage of EdU-negative (MCF7; [3]) [%] | percentage of EdU-negative (hTERT-HMEC; [1]) [%] | percentage of EdU-negative (hTERT-HMEC; [2]) [%] | percentage of EdU-negative (hTERT-HMEC; protein concentration 0.225 µM) [%] | percentage of EdU-negative (hTERT-HMEC; [3]) [%] | further results
MFHVSFRYIFGLPPLILVLLPVASSDCDIEGKDGKQYESVLMVSIDQLLDSMKEIGSNCLNNEFNFFKRHICDANKEGMFLFRAARKLRQFLKMNSTGDFDLHLLKVSEGTTILLNCTGQVKGRKPAALGEAQPTKSLEENKSLKEQKKLNDLCFLKRLLQEIKTCWNKILMGTKEH | 27.6 ± 3.5 | 26 ± 0.34 | 25.3 ± 1.1 | 25.9 ± 0.41 | 5.22 ± 1 | 5.03 ± 1.4 | 6.63 ± 0.069 | 4.47 ± 0.49 | –
MFIKVMFGAGCSVLVNTSCRLVNLTAHLRQKAGLPPDATIALLAEDGNLVSLEEDLKEGASRAQTMGNSLLKERAIYVLVRIIKGEDMASTRYESLLENLDDHYPELAEELRRLSGLSSVGHNWRKRMGTRRGRHEQSPTSRPRKGPD [Q8WYQ4] | – | 28 ± 1.6 | – | 25.79 ± 0.035 | – | 5.45 ± 0.84 | – | 5.68 ± 0.37 | –
MFKCWSVVLVLGFIFLESEGRPTKEGGYGLKSYQPLMRLRHKQEKNQESSRVKGFMIQDGPFGSCENKYCGLGRHCVTSRETGQAECACMDLCKRHYKPVCGSDGEFYENHCEVHRAACLKKQKITIVHNEDCFFKGDKCKTTEYSKMKNMLLDLQNQKYIMQENENPNGDDISRKKLLVDQMFKYFDADSNGLVDINELTQVIKQEELGKDLFDCTLYVLLKYDDFNADKHLALEEFYRAFQVIQLSLPEDQKLSITAATVGQSAVLSCAIQGTLRPPIIWKRNNIILNNLDLEDINDFGDDGSLYITKVTTTHVGNYTCYADGYEQVYQTHIFQVNVPPVIRVYPESQAREPGVTASLRCHAEGIPKPQLGWLKNGIDITPKLSKQLTLQANGSEVHISNVRYEDTGAYTCIAKNEAGVDEDISSLFVEDSARKTLANILWREEGLGIGNMFYVFYEDGIKVIQPIECEFQRHIKPSEKLLGFQDEVCPKAEGDEVQRCVWASAVNVKDKFIYVAQPTLDRVLIVDVQSQKVVQAVSTDPVPVKLHYDKSHDQVWVLSWGTLEKTSPTLQVITLASGNVPHHTIHTQPVGKQFDRVDDFFIPTTTLIITHMRFGFILHKDEAALQKIDLETMSYIKTINLKDYKCVPQSLAYTHLGGYYFIGCKPDSTGAVSPQVMVDGVTDSVIGFNSDVTGTPYVSPDGHYLVSINDVKGLVRVQYITIRGEIQEAFDIYTNLHISDLAFQPSFTEAHQYNIYGSSSTQTDVLFVELSSGKVKMIKSLKEPLKAEEWPWNRKNRQIQDSGLFGQYLMTPSKDSLFILDGRLNKLNCEITEVEKGNTVIWVGDA [Q8N475] | – | – | – | – | – | – | – | – | percentage of EdU-negative (MCF7; [4]): 24.2 ± 4.5%; percentage of EdU-negative (MCF7; [5]): 26.4 ± 1.8%; percentage of EdU-negative (hTERT-HMEC; [4]): 4.72 ± 1.2%; percentage of EdU-negative (hTERT-HMEC; [5]): 6.54 ± 0.16%
MFLKAVVLTLALVAVAGARAEVSADQVATVMWDYFSQLSNNAKEAVEHLQKSELTQQLNALFQDKLGEVNTYAGDLQKKLVPFATELHERLAKDSEKLKEEIGKELEELRARLLPHANEVSQKIGDNLRELQQRLEPYADQLRTQVSTQAEQLRRQLTPYAQRMERVLRENADSLQASLRPHADELKAKIDQNVEELKGRLTPYADEFKVKIDQTVEELRRSLAPYAQDTQEKLNHQLEGLTFQMKKNAEELKARISASAEELRQRLAPLAEDVRGNLRGNTEGLQKSLAELGGHLDQQVEEFRRRVEPYGENFNKALVQQMEQLRQKLGPHAGDVEGHLSFLEKDLRDKVNSFFSTFKEKESQDKTLSLPELEQQQEQQQEQQQEQVQMLAPLES | – | – | – | – | – | – | – | – | percentage of EdU-negative (MCF7; [6]): 22.7 ± 1.3%; percentage of EdU-negative (MCF7; [7]): 27 ± 1.5%; percentage of EdU-negative (hTERT-HMEC; [6]): 5.7 ± 1%; percentage of EdU-negative (hTERT-HMEC; [7]): 7.022 ± 0.041%
MFPFYSCWRTGLLLLLLAVAVRESWQTEEKTCDLVGEKGKESEKELALVKRLKPLFNKSFESTVGQGSDTYIYIFRVCREAGNHTSGAGLVQINKSNGKETVVGRLNETHIFNGSNWIMLIYKGGDEYDNHCGKEQRRAVVMISCNRHTLADNFNPVSEERGKVQDCFYLFEMDSSLACSPEISHLSVGSILLVTFASLVAVYVVGGFLYQRLVVGAKGMEQFPHLAFWQDLGNLVADGCDFVCRSKPRNVPAAYRGVGDDQLGEESEERDDHLLPM | – | 25.21 ± 0.13 | – | 24.8 ± 1.1 | – | 5.26 ± 0.29 | – | 5.43 ± 0.57 | –
MFSTKALLLAGLISTALAGPWANICAGKSSNEIRTCDRHGCGQYSAQRSQRPHQGVDILCSAGSTVYAPFTGMIVGQEKPYQNKNAINNGVRISGRGFCVKMFYIKPIKYKGPIKKGEKLGTLLPLQKVYPGIQSHVHIENCDSSDPTAYL | 23.8 ± 1.3 | – | 26.3 ± 0.79 | – | 4.82 ± 1.7 | – | 7.53 ± 0.43 | – | –

Source: the supplement of paper PMC11316812
